Test results as given in patent US20100255010A1 (Genentech, published 2010).
Positions count from the first letter of the chain named. Each block holds one binder with its values, some of them ahead of it.

Key:
[1] = target: T1, HER3-ECD-Fc (human, UniProt P21860 20-643, limits assumed); assay: radioligand blocking assay: antibody pre-bound to captured HER3-ECD-Fc, then 125I-HRG added; bound counts as % of control
T1 construct: extracellular domain; also called HER3-FC; HER3-IgG

[2] = target: HER3 (form of the protein in the assay not stated) (UniProt P21860 20-643, limits assumed); assay: SPR BIAcore

B1: D1.5-115, mIgG2A (antibody, V domains shown)
VH: EVQLVESGGGLVQPGGSLRLSCAASGFTFTGNWIHWVRQAPGKGLEWVGEISPSGGYTDYADSVKGRFTISADTSKNTAYLQMNSLRAEDTAVYYCARESRVSYEAAMDYWGQGTLVTVSS
VL: DIQMTQSPSSLSASVGDRVTITCRASQEIFPDVAWYQQKPGKAPKLLIYSASSLYSGVPSRFSGSGSGTDFTLTISSLQPEDFATYYCQQAAPTPYTFGQGTKVEIKR
IC50 (read off the curve) [1]: ~3 nM

B2: D1.5-113, mIgG2A (antibody, V domains shown)
VH: B1 VH
VL: DIQMTQSPSSLSASVGDRVTITCRASQSLLASHDGTPWVAWYQQKPGKAPKLLIYDASYLYSGVPSRFSGSGSGTDFTLTISSLQPEDFATYYCQQSTFAPYTFGQGTKVEIKR
IC50 (read off the curve) [1]: ~3 nM

B4: D1.5-116, mIgG2A (antibody, V domains shown)
VH: B1 VH
VL: B1 VL with E28A, F30A, P31S, S53F, A91S, A92E, T94E
IC50 (read off the curve) [1]: ~4 nM

Next, values leading:

IC50 (read off the curve) [1]: ~5 nM
B3: D1.5-121, mIgG2A (antibody, V domains shown)
VH: B1 VH
VL: B1 VL with E28D, I29V, F30G, P31S, V33L, S53Y, A91S, A92D, T94E

binding result [2]: binds
B5: DL11b (bispecific antibody, V domains shown)
VH: B1 VH with F29L, T30S, N32D, V48L, P53A, S54A, Y104F
VL: B1 VL with E28N, F30A, P31T, S53F, A91S, A92E, T94E
